B1: GpH7-B3 variant S298_06M/GpL16-k0 (antibody, human IgG1, kappa)
heavy: not shown
light: DIVMTQSPLSLPVTPGEPASISCQASESLVHSNRNTYLHWYLQKPGQSPQLLIYKVSNRFSGVPDRFSGSGSGTDFTLKISRVEAEDVGVYYCSQNTHVPPTFGQGTKVEIERTVAAPSVFIFPPSDEQLKSGTASVVCLLNNFYPREAKVQWKVDNALQSGNSQESVTEQDSKDSTYSLSSTLTLSKADYEKHKVYACEVTHQGLSSPVTKSFNRGEC
notes: also called Ho Ab
B2: GpH7-B3 variant S337_04F/GpL16-k0 (antibody, human IgG1, kappa)
heavy: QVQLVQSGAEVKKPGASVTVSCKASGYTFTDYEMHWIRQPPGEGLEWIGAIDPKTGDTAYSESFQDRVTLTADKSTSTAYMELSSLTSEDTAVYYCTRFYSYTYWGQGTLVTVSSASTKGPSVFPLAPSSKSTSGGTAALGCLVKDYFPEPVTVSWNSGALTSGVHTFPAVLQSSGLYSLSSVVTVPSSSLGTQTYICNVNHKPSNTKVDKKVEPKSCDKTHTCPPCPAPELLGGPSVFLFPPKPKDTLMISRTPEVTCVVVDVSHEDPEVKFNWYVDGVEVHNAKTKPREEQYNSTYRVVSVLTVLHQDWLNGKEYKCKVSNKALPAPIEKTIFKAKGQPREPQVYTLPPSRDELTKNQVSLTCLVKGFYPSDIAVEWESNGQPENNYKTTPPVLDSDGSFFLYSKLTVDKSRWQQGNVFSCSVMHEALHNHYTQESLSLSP
light: B1 light
notes: also called Ho Ab
B3: GpH7-A5/GpH7-B3 variant S337_08L/GpL16-k0 (antibody, human IgG1, kappa)
heavy 1: not shown
heavy 2: not shown
light: B1 light
notes: also called He Ab S337_08L
B4: GpH7-B3 variant P331_06M/GpL16-k0 (antibody, human IgG1, kappa)
heavy: not shown
light: B1 light
notes: also called Ho Ab
B5: GpH7-B3 variant P331_09D/GpL16-k0 (antibody, human IgG1, kappa)
heavy: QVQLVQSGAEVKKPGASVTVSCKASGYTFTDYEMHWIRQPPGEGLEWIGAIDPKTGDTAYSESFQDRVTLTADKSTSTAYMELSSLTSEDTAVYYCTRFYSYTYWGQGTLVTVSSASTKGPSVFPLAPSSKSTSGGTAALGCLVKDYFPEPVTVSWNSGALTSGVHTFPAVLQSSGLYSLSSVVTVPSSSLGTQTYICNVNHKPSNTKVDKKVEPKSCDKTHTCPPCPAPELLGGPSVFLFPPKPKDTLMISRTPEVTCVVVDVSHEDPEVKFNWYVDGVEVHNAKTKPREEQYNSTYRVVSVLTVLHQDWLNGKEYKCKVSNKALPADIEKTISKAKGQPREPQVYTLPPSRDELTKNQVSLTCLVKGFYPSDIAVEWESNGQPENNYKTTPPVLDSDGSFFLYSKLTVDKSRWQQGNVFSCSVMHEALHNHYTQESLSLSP
light: B1 light
notes: also called Ho Ab
B6: GpH7-B3 variant S337_06M/GpL16-k0 (antibody, human IgG1, kappa)
heavy: not shown
light: B1 light
notes: also called Ho Ab
B7: GpH7-B3 variant S337_08L/GpL16-k0 (antibody, human IgG1, kappa)
heavy: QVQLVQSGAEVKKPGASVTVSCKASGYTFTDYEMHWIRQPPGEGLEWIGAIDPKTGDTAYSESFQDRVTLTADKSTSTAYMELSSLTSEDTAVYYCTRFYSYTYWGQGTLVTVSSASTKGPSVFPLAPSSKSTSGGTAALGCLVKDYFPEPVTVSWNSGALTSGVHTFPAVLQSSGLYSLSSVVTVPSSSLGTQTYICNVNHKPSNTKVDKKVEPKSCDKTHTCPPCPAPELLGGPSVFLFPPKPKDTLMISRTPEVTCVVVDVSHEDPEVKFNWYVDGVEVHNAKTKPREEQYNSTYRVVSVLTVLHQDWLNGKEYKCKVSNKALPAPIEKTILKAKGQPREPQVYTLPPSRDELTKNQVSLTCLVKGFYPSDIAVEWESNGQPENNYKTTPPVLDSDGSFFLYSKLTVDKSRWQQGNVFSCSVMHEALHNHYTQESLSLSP
light: B1 light
notes: also called Ho Ab
B8: GpH7-A5/GpH7-B3 variant T335_07I/GpL16-k0 (antibody, human IgG1, kappa)
heavy 1: not shown
heavy 2: not shown
light: B1 light
notes: also called He Ab T335_07I
B9: GpH7-A5/GpH7-B3 variant T335_10E/GpL16-k0 (antibody, human IgG1, kappa)
heavy 1: not shown
heavy 2: not shown
light: B1 light
notes: also called He Ab T335_10E
B10: GpH7-A5/GpH7-B3 variant T335_16H/GpL16-k0 (antibody, human IgG1, kappa)
heavy 1: not shown
heavy 2: not shown
light: B1 light
notes: also called He Ab T335_16H
B11: GpH7-A5/GpH7-B3 variant S337_15Y/GpL16-k0 (antibody, human IgG1, kappa)
heavy 1: not shown
heavy 2: not shown
light: B1 light
notes: also called He Ab S337_15Y
B12: GpH7-B3 variant S337_11K/GpL16-k0 (antibody, human IgG1, kappa)
heavy: not shown
light: B1 light
notes: also called Ho Ab
B13: GpH7-B3 variant S239_07I/GpL16-k0 (antibody, human IgG1, kappa)
heavy: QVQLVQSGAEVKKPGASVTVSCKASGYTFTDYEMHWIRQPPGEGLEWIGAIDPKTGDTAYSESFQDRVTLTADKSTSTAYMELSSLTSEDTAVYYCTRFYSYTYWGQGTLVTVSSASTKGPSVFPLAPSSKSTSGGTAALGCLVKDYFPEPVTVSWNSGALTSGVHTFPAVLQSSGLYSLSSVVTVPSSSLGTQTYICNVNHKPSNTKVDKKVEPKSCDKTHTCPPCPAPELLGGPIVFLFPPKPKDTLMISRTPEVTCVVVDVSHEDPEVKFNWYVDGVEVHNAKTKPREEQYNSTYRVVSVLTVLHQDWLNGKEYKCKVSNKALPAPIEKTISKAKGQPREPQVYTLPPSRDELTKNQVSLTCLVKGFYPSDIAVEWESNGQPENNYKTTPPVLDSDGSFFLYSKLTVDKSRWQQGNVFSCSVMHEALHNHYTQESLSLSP
light: B1 light
notes: also called Ho Ab
B14: GpH7-A5/GpH7-B3 variant Y296_20W/GpL16-k0 (antibody, human IgG1, kappa)
heavy 1: not shown
heavy 2: not shown
light: B1 light
notes: also called He Ab Y296_20W
B15: GpH7-B3 variant S337_15Y/GpL16-k0 (antibody, human IgG1, kappa)
heavy: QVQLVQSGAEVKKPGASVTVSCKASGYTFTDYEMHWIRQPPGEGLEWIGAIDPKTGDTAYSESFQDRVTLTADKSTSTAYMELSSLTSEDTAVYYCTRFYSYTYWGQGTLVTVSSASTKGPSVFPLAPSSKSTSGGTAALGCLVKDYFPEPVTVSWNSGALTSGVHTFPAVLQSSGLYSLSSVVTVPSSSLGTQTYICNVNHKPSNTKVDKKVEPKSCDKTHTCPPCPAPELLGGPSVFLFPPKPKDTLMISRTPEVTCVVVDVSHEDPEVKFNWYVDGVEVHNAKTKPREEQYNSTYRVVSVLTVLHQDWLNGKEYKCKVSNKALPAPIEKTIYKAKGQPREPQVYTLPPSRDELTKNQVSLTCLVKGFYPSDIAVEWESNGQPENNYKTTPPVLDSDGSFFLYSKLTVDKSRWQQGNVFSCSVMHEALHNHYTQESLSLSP
light: B1 light
notes: also called Ho Ab
B16: GpH7-B3 variant P331_14T/GpL16-k0 (antibody, human IgG1, kappa)
heavy: not shown
light: B1 light
notes: also called Ho Ab
B17: GpH7-A5/GpH7-B3 variant T335_19Q/GpL16-k0 (antibody, human IgG1, kappa)
heavy 1: not shown
heavy 2: not shown
light: B1 light
notes: also called He Ab T335_19Q
B18: GpH7-B3 variant Q295_10E/GpL16-k0 (antibody, human IgG1, kappa)
heavy: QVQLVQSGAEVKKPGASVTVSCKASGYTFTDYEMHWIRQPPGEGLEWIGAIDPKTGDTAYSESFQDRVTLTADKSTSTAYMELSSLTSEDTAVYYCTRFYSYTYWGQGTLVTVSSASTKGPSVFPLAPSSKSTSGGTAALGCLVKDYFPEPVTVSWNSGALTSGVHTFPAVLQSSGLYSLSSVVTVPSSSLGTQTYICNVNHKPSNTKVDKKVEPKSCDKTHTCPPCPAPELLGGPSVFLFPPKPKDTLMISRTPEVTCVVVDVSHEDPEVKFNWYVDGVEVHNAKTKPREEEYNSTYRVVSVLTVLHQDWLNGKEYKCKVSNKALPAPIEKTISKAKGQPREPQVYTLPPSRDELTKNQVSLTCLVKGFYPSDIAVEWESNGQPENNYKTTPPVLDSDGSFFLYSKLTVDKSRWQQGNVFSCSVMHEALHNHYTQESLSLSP
light: B1 light
notes: also called Ho Ab
B19: GpH7-B3 variant P331_18N/GpL16-k0 (antibody, human IgG1, kappa)
heavy: not shown
light: B1 light
notes: also called Ho Ab
B20: GpH7-B3 variant P331_15Y/GpL16-k0 (antibody, human IgG1, kappa)
heavy: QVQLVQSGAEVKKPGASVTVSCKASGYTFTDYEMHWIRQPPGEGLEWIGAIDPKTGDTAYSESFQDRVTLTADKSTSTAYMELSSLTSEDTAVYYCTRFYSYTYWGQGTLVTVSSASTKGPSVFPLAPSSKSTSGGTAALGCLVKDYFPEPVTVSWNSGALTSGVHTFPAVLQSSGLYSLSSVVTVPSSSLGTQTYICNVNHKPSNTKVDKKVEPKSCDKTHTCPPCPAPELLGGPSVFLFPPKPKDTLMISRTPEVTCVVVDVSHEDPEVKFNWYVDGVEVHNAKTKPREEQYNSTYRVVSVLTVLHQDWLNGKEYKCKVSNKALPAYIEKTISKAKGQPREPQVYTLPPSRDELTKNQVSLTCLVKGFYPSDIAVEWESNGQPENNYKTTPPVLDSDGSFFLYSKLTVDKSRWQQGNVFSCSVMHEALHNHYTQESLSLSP
light: B1 light
notes: also called Ho Ab
B21: GpH7-B3 variant S298_08L/GpL16-k0 (antibody, human IgG1, kappa)
heavy: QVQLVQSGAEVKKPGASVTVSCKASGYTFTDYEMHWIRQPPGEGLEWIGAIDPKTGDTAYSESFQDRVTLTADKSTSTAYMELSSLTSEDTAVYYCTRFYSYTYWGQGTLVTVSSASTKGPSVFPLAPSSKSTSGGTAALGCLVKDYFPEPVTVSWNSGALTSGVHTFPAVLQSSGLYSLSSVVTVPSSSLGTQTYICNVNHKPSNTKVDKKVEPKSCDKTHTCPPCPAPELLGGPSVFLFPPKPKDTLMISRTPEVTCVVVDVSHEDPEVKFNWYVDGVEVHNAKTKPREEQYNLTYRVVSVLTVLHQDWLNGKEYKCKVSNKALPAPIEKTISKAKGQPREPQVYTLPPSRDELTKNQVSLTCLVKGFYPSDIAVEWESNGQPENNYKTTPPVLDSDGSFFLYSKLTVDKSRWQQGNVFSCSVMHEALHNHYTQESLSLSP
light: B1 light
notes: also called Ho Ab
B22: GpH7-B3 variant S239_06M/GpL16-k0 (antibody, human IgG1, kappa)
heavy: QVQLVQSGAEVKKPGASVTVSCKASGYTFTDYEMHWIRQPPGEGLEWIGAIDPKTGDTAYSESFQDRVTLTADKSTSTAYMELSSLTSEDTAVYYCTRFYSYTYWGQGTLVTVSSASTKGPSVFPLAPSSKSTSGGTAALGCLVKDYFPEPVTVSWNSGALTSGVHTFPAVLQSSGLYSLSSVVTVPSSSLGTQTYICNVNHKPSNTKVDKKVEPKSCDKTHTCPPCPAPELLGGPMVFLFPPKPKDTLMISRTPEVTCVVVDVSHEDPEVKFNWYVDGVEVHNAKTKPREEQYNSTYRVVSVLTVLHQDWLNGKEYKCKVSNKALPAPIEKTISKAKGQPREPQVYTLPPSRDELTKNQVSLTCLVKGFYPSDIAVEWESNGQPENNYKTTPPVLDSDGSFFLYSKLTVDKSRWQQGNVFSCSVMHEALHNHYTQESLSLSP
light: B1 light
notes: also called Ho Ab
B23: GpH7-B3 variant S267_06M/GpL16-k0 (antibody, human IgG1, kappa)
heavy: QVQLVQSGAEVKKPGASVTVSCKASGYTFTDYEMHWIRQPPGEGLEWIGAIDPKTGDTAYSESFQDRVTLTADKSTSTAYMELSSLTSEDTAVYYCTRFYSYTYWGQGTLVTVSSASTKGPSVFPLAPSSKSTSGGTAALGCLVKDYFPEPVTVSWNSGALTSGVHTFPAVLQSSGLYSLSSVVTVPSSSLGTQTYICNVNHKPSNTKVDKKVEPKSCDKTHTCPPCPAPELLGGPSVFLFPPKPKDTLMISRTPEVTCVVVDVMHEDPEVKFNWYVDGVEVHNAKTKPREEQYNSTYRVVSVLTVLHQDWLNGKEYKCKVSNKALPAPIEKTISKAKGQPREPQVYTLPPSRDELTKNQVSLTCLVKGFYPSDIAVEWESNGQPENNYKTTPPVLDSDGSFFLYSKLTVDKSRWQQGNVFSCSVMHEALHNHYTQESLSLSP
light: B1 light
notes: also called Ho Ab
B24: GpH7-B3 variant S239_18N/GpL16-k0 (antibody, human IgG1, kappa)
heavy: not shown
light: B1 light
notes: also called Ho Ab
B25: GpH7-B3 variant P331_16H/GpL16-k0 (antibody, human IgG1, kappa)
heavy: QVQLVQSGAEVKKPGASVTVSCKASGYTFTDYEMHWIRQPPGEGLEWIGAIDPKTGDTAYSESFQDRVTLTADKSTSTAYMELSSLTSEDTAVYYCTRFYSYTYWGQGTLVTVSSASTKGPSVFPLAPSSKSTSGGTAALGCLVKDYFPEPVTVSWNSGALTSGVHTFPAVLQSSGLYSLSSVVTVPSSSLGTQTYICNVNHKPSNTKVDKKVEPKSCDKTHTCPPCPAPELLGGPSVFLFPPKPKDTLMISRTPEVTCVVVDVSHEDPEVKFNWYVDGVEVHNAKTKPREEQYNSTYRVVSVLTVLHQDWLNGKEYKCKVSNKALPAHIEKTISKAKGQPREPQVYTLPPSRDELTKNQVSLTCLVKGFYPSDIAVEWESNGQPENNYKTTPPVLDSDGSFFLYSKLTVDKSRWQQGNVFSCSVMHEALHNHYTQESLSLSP
light: B1 light
notes: also called Ho Ab
B26: GpH7-B3 variant S337_10E/GpL16-k0 (antibody, human IgG1, kappa)
heavy: not shown
light: B1 light
notes: also called Ho Ab
B27: GpH7-B3 variant P331_20W/GpL16-k0 (antibody, human IgG1, kappa)
heavy: not shown
light: B1 light
notes: also called Ho Ab

How the values were obtained:
[1] = target: T1, FcγRIIa R (FcγRIIa, allotype with Arg at position 131), extracellular domain with C-terminal His tag (human, UniProt P12318 34-217); experiment: SPR (Biacore), antibody captured on antigen peptide chip, FcγR as analyte; relative binding
T1 construct: extracellular domain; also called FcγRIIa R type; 2aR
T1 sequence (looked up): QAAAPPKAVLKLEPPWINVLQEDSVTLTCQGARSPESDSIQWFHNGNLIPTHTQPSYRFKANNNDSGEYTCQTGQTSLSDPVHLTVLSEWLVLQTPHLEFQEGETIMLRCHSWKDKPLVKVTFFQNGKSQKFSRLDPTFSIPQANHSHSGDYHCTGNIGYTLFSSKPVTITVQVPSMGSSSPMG
Experimental: Analysis of interaction between objective antibody and the FcγR was carried out using Biacore T100 (GE Healthcare). HBS-EP+ (GE Healthcare) was used as the running buffer, and the measurement temperature was set to 25° C. Chips produced by immobilizing the antigen peptide by the amine coupling method to a Series S Sencor Chip CM5 (GE Healthcare), or alternatively, chips produced by allowing preliminarily biotinylated antigen peptides to interact with and immobilize onto a Series S Sensor Chip SA (certified) (GE Healthcare) were used. Antibodies of interest were captured onto an antigen peptide-immobilized chip, and allowed to interact to each FcγR diluted with running buffer. To regenerate and repeatedly use the chip, the antibodies captured on the chip were washed off by reacting 10 mM glycine-HCl, pH 1.5.

[2] = target: T2, FcγRIIb extracellular domain with C-terminal His tag (human, UniProt P31994 43-217); experiment: SPR (Biacore), relative binding
T2 construct: extracellular domain; also called FcgRIIb; 2b
T2 sequence (looked up): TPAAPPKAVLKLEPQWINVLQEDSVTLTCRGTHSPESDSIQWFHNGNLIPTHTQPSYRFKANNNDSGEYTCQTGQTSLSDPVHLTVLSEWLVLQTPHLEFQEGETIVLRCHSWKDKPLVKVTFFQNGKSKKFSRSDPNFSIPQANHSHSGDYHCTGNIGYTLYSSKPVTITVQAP

| Ho/Con_2aR [1] | He/Con_2b [2] | Binder |
| --- | --- | --- |
| 102 % of GpH7-B3/GpL16-k0 (=100) | – | B1 |
| 98.3 % of GpH7-B3/GpL16-k0 (=100) | – | B2 |
| – | 100 % of HeCon Ab GpH7-A5/GpH7-B3/GpL16-k0 | B3 |
| 79.8 % of GpH7-B3/GpL16-k0 (=100) | – | B4 |
| 88.8 % of GpH7-B3/GpL16-k0 (=100) | – | B5 |
| 101 % of GpH7-B3/GpL16-k0 (=100) | – | B6 |
| 99.4 % of GpH7-B3/GpL16-k0 (=100) | – | B7 |
| – | 106 % of HeCon Ab GpH7-A5/GpH7-B3/GpL16-k0 | B8 |
| – | 108 % of HeCon Ab GpH7-A5/GpH7-B3/GpL16-k0 | B9 |
| – | 102 % of HeCon Ab GpH7-A5/GpH7-B3/GpL16-k0 | B10 |
| – | 100 % of HeCon Ab GpH7-A5/GpH7-B3/GpL16-k0 | B11 |
| 94.6 % of GpH7-B3/GpL16-k0 (=100) | – | B12 |
| 85.3 % of GpH7-B3/GpL16-k0 (=100) | – | B13 |
| – | 103 % of HeCon Ab GpH7-A5/GpH7-B3/GpL16-k0 | B14 |
| 100 % of GpH7-B3/GpL16-k0 (=100) | – | B15 |
| 80.8 % of GpH7-B3/GpL16-k0 (=100) | – | B16 |
| – | 100 % of HeCon Ab GpH7-A5/GpH7-B3/GpL16-k0 | B17 |
| 99.2 % of GpH7-B3/GpL16-k0 (=100) | – | B18 |
| 76.9 % of GpH7-B3/GpL16-k0 (=100) | – | B19 |
| 105 % of GpH7-B3/GpL16-k0 (=100) | – | B20 |
| 101 % of GpH7-B3/GpL16-k0 (=100) | – | B21 |
| 82.9 % of GpH7-B3/GpL16-k0 (=100) | – | B22 |
| 102 % of GpH7-B3/GpL16-k0 (=100) | – | B23 |
| 103 % of GpH7-B3/GpL16-k0 (=100) | – | B24 |
| 100 % of GpH7-B3/GpL16-k0 (=100) | – | B25 |
| 110 % of GpH7-B3/GpL16-k0 (=100) | – | B26 |
| 102 % of GpH7-B3/GpL16-k0 (=100) | – | B27 |
